Our source for the stoichiometry N values is PMC10017804.

The test deals with photosystem II (PSII) complex of Porphyridium purpureum (P. purpureum (endogenous in P. purpureum cells)). As to the kind of experiment: cryo-EM structure; in situ, single cryo-EM images (no tilt series) of FIB-milled P. purpureum cellular lamellae; particles localized by GisSPA, then 3D classification and local refinement.

With “photosystem II (PSII) complex of Porphyridium purpureum”, the stoichiometry N – broadly, a count of units in the complex or per binding partner – is 4.
